Test results reported in patent US20250296984A1, “THERAPEUTIC AND DIAGNOSTIC AGENTS AND USES THEREOF” (priority 2022, published 2025).

What was measured:
[1] = system: human cancer tissues and adjacent normal tissues; assay: Immunohistochemistry (IHC) on human cancer tissue micro-arrays
Description: Cytomegalovirus (CMV) control slides containing CMV positive lung tissue and CMV negative myometrium (product number #3240A) were obtained from Newcomer Supply Inc., Middleton, WI 53562-2579, USA. Tissue micro-arrays (TMAs) were obtained from US Biomax Inc., Derwood, MD 20855, USA, and included tumor tissues #BR1008b, #BS17016c, #BCN721b and normal tissues #FDA662a and heart tissues #HEN241a.
The paraffin sections were sequentially immersed into a. 100% xylene three times (5 min each); b. 100% ethanol twice (2 min each); c. 95% ethanol twice (2 min each). The slides were rinsed twice in water for 5 min to remove ethanol. […], the slides were immersed in 3% H2O2 for 5 minutes and washed thereafter twice (2×) with distilled water. The slides were then immersed in the working citrate buffer (pH 6.0) and covered with a lid. The buffer was heated in the microwave until it had boiled, and then kept in the steamer for 15 min.
The sections were cooled at room temperature for 30 min and washed with PBS. 5% BSA blocking solution was then added to the HIER treated samples and they were incubated at 37° C. for 30 min. The primary antibody was diluted according to the best results from the dilution gradient tests and added to the samples for incubation overnight at 4° C. or 37° C. for 1 h. The slides were then washed three times in PBS on the shaker. The secondary antibodies were used in 1:200 dilution, added to the samples and incubated at 37° C. for 30 min. The slides were washed three times (5 min each) in PBS on the shaker. Strept-Avidin Biotin Complex (SABC) HRP- or AP-conjugated reagents were added, and the samples were incubated in dark at room temperature. The samples were thereafter washed in distilled water, counter stained by hematoxylin, and then dehydrated through gradient ethanol from 70% to 100%, and cleared by 3 times in xylene, 5 min each. Slides were mounted by ACRYMOUNT (StatLab, MicKinney, TX 75069, USA) and cover-slipped. Digitized pictures were taken by Olympus VS120 scanner and analyzed by using OlyVia 3.2 software (Olympus Corporation, 20101 Tokyo, Japan) by senior Pathologist.
We thereafter studied the binding of US28-13-5G6-1D3 rAb to human cancer tissues by using IHC and confirmatory ISH analyses. The results were evaluated by a Senior Pathologist. We found specific staining of the US28-13-5G6-1D3 rAb on several cancer types. Among these were glioblastomas (e.g. glioblastoma grade 4), colonic cancer, rectum cancer, breast cancer (e.g. locally advanced breast cancer and its metastasis), oesophagus cancer, gastric/stomach cancer, pancreas cancer, liver cancer such as hepatocellular carcinoma, lung cancer, malignant pheochromocytoma and cervical cancer, showing for the first time a potential universal role of US28 in pathology of cancer. The staining intensity of different cancer cells were classified as negative=0, weakly positive=1+, moderately positive=2+ or strongly positive=3+. […] In the majority of tumors with a positive US28-13-5G6-1D3 rAb staining, the staining was generally positive in large parts of the tumor cells. The tumor positivity was confirmed by positive finding of HCMV DNA in nucleus of the tumor cells by using ISH. […] The IgG control Ab staining was used as negative control and was negative in all of the studied cancerous and normal tissues.

[2] = system: human astrocytoma and glioblastoma tissues; assay: IHC in human brain cancer cohort (astrocytoma grade 1-3, glioblastoma grade 4, NAT); design: key to IHC staining grade: stained negative (0); positive cytoplasmic staining (1+); moderately positive cytoplasmic staining (2+)
Text: FIG. 17. Human glioblastoma tissues were studied with the US28-13-5G6-1D3 rAb and MAB810R antibodies by using IHC and with ISH analysis for HCMV DNA. […] The staining was present in several cells in each positive sample which was different from the breast cancer samples. However, the staining of the glia cells was weaker than for the US28-13-5G6-1D3 rAb. C. The brain tissue NAT is negative for 13-5G6-1D3 staining. […] The arrows indicate these signals. E. The staining of the same Gliobastoma grade IV sample is negative for the IgG antibody. F. The ISH analysis is negative for the same brain tissue NAT sample. The positive glia cells are indicated with arrows in the non-colour version of these figures. A colour version of FIG. 17 is provided on the page after the non-colour version.
FIG. 18. US28-13-5G6-1D3 staining of the human brain cancer cohort containing human astrocytoma grade 1-3 and glioblastoma grade 4 and NAT tissues. All the astrocytoma grade 1 (n=4) stained negative (0). Of the grade 2-3 astrocytomas, 6 stained negative (0), 37 had positive cytoplasmic staining (1+), and 2 had moderately positive cytoplasmic staining (2+). […] The ISH analysis confirmed presence of nuclear HCMV DNA in tumor cells of all tumor samples. Only 3 of 10 NAT samples were HCMV DNA positive.

[3] = system: human heart muscle tissue; assay: IHC on human cardiac tissue samples (TMA with malignant pheochromocytoma positive control)
Description: FIG. 19. A. Flowcytometry analysis with the 28-13-5G6-1D3-PE antibody were conducted on various human primary cells to exclude general off-target binding to the surface of these cell types. The following cell lines were studied: human primary adrenal cortical cells, human primary kidney epithelial cells, human primary cardiac microvascular endothelial cells, human primary liver epithelial cells and human primary vein smooth muscle cells. […] B. Original human primary cardiac cells were not available, and human cardiac tissue samples were therefore studied for staining of 13-5G6-1D3 by immunohistochemistry. […] If there were HCMV infections present in the human heart, they were always of productive infection type. […] The positive 13-5G6-1D3 and HCMV ISH results are marked with arrows in the figure. A colour version of FIG. 19 is also provided.

| Molecule | staining of metastases ([1]; All TNBC (n=8) and HER2 positive (n=11) metastases) | samples positive for staining ([1]; Hepatocellular carcinomas) | samples positive for staining ([1]; cervix cancer samples) | controls negative for staining ([1]; epithelial cells adjacent to colon adenocarcinoma) | samples positive for staining ([1]; lung cancer samples) | samples positive for staining ([1]; pancreas cancer samples) | number of samples with positive staining ([1]; rectum adenocarcinoma, 3 studied) | IHC staining grade ([2]; all astrocytoma grade 1 (n=4)) | number of tumors stained negative (0) ([2]; grade 2-3 astrocytomas) | number of tumors with moderately positive cytoplasmic staining (2+) ([2]; grade 2-3 astrocytomas) | number of tumors with positive cytoplasmic staining (1+) ([2]; grade 2-3 astrocytomas) | IHC staining of heart muscle tissue [3] | IHC staining ([1]; human malignant pheochromocytoma tumor (HCMV positive control), FIG. 19 B) | adjacent control breast tissues with no cytoplasmic staining ([1]; normal breast epithelial cells) | IHC staining of brain tissue NAT [2] | IHC staining of malignant pheochromocytoma ([3]; positive control on the same TMA plate) |
| --- | --- | --- | --- | --- | --- | --- | --- | --- | --- | --- | --- | --- | --- | --- | --- | --- |
| US28-13-5G6-1D3: monoclonal antibody against ECD3 of HCMV US28; VH SEQ ID NO: 12, VL SEQ ID NO: 18; rAb is the recombinant product (antibody, V domains shown, Mature form of VH sequence of 1D3, without the leader sequence; Mature form of VL sequence of 1D3, without the leader sequence, monoclonal antibody against ECD3 of HCMV US28; rAb is the recombinant product) VH: EVKLVESGGGLVQPGGSLRLACATSGFTFTDYYMSWVRQPPGKALEWLGFIRSKANGYTTEYSASVKGRFTISRDNSQSILYLQMNTLRSEDSATYYCARDERRTAWLAYWGQGTLVTVSA VL: DVLMTQTPLSLPVSLGDQASISCRSSQSIVHSNGNTYLDWYLQKPGQSPKLLIYKVSNRFSGVPDRFSGSGSGTDFTLKISRVEAEDLGVYYCFQGSHVPTWTFGGGTKLEIK | positive | 2/3 | 2/3 | 3/3 | 2/3 | 1/3 | 3 | 0 | 6 | 2 | 37 | negative | – | – | – | – |
| 13-5G6-1D3: mouse monoclonal IgG1 kappa antibody against US28 ECD3; VH SEQ ID NO: 12, VL SEQ ID NO: 18 (antibody, V domains shown, Mature form of VH sequence of 1D3, without the leader sequence; Mature form of VL sequence of 1D3, without the leader sequence) VH: EVKLVESGGGLVQPGGSLRLACATSGFTFTDYYMSWVRQPPGKALEWLGFIRSKANGYTTEYSASVKGRFTISRDNSQSILYLQMNTLRSEDSATYYCARDERRTAWLAYWGQGTLVTVSA VL: DVLMTQTPLSLPVSLGDQASISCRSSQSIVHSNGNTYLDWYLQKPGQSPKLLIYKVSNRFSGVPDRFSGSGSGTDFTLKISRVEAEDLGVYYCFQGSHVPTWTFGGGTKLEIK | – | – | – | – | – | – | – | – | – | – | – | – | positive staining | 10/10 | negative | positive staining |
